*1 amine or outer side, *2 acyl side, *3 side chain or, on linkers, in order; H or OH if unused. Where a SMILES comes first, the peptide text is derived from it. [ ]: non-standard residue; d: D form. N(2-mercaptoethyl)Gly = O=C(CN(CCS[*:3])[*:1])[*:2]; NMeS = CN[C@@H](CO)C(=O)O
How the values were obtained:
[1] = molecular target: Full-length recombinant HA (His-Tag), H1N1 hemagglutinin, GenScript Cat No. Z03181 (influenza A virus H1N1); experiment: SPR
[2] = molecular target: Full-length recombinant HA (His-Tag), H1N1 hemagglutinin, GenScript Cat No. Z03181 (influenza A virus H1N1); experiment: MST; labelled His-HA (NT647-HA) held constant, compound in 16 1:1 serial dilutions from 50 µM, PBS, 10 min at rt, standard-treated capillaries, Monolith NT.115pico, 10% LED power, high MST power, triplicate
A/Parma/24/09 H1N1 virus [3] = tested on: A/Parma/24/09 H1N1 virus; set-up: method as in Scala et al. (2017) [23]; settings: read-out: IC50 (peptide concentration that inhibits virus-induced hemagglutination by 50%), reference peptides, ref Scala et al. (2017) [23]; cited from earlier work
A/Parma/24/09 H1N1 virus [4] = tested on: A/Parma/24/09 H1N1 virus; set-up: method as in Scala et al. (2017) [23]; settings: read-out: EC50 (concentration that reduced cytopathic effect by 50%); reference peptides; ref Scala et al. (2017) [23]; cited from earlier work
[5] = molecular target: T1, HA (H1N1 hemagglutinin, Cat No.: Z03181, GenScript) (Influenza A virus, UniProt C3W5S1); experiment: biochemical; type: binding
T1 construct: Full-length recombinant HA (His-Tag) was immobilized; purchased GenScript Z03181-100
T1 sequence (C3W5S1 entry or part of it, added parts left off): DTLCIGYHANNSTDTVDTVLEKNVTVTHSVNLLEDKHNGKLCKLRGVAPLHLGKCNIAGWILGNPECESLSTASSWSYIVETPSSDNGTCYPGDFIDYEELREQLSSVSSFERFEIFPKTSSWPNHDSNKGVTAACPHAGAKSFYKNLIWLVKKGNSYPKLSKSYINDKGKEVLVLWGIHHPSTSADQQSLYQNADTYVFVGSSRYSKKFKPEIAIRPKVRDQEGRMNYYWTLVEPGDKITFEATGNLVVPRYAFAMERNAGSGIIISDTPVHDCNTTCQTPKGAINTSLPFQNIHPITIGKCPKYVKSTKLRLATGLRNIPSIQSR

| Compound | Kd [1] [µM] | Kd [2] [µM] | further results |
| --- | --- | --- | --- |
| (N-Me)SKHS (peptide) | 4.19 | 0.336 | – |
| S(N-Me)LDC (peptide) | 0.58 | 0.0325 | – |
| SL(N-Me)DC (peptide) | – | 8.8 | – |
| SLDNhC (peptide) | – | 0.0459 | – |
| SLDC [Peptide 1] | – | – | IC50 (A/Parma/24/09 H1N1 virus [3]): 0.006 ± 0.003 µM; EC50 (A/Parma/24/09 H1N1 virus [4]): 4.6 pM |
| SNLDC (peptide) | 3.81 | 0.701 | – |
| SKH(N-Me)S (peptide) | – | 3.04 | – |
| SKHS [Peptide 2] | – | – | IC50 (A/Parma/24/09 H1N1 virus [3]): 0.0015 ± 0.0007 µM |
| NhSKHS (peptide) | 2.09 | 7.4 | – |
| SLNDC (peptide) | – | 1.34 | – |
| (N-Me)SLDC (peptide) | 7.6 | 24.8 | – |
| CC(=O)N[C@@H](CO)C(=O)N[C@@H](CCCCN)C(=O)N(CC(=O)N[C@@H](CO)C(N)=O)Cc1c[nH]cn1 [Peptide 17, SKNHS] | – | – | Kd [5]: 3.07 ± 0.79 µM |
| SKHNhS (peptide) | 0.43 | 0.0491 | – |
| NhSLDC (peptide) | 6.55 | 0.0672 | – |
| CC(=O)N[C@@H](CO)C(=O)N[C@@H](CC(C)C)C(=O)N[C@@H](CC(=O)O)C(=O)N(CCS)CC(N)=O [Peptide 14, SLDNhC] (Ac-SLD[N(2-mercaptoethyl)Gly]-NH2) | – | – | Kd [5]: 0.0459 ± 0.01 µM |
| SNKHS (peptide) | 1.7 | 0.0391 | – |
| SLD(N-Me)C (peptide) | 3.8 | 0.142 | – |
| SKNHS (peptide) | – | 3.07 | – |
| CC(=O)N[C@@H](CO)C(=O)N[C@@H](CCCCN)C(=O)N[C@@H](Cc1c[nH]cn1)C(=O)N(C)[C@@H](CO)C(N)=O [Peptide 10, SKH(N-Me)S] (Ac-SKH[NMeS]-NH2) | – | – | Kd [5]: 3.04 ± 0.85 µM |
| S(N-Me)KHS (peptide) | 8.33 | 7.93 | – |
| SK(N-Me)HS (peptide) | 1.26 | 0.0528 | – |
